Data reported in patent US20260176319A1 (KALLYOPE, published 2026).
Starred links: 1 amine or outer side, 2 acyl side, 3 side chain; linkers in the order of their positions; H or OH if unused. Non-standard residues stand in square brackets, D forms with d. *: point of attachment. Trp(7-Me) = Cc1cccc2c(C[C@H](N)C(=O)O)c[nH]c12; C20 diacid = O=C(O)CCCCCCCCCCCCCCCCCCC(=O)*; d(γGlu) = O=C(O)[C@@H](CCC(=O)[*:2])N[*:1]; γGlu = O=C(O)[C@H](CCC(=O)[*:2])N[*:1]; NMeH = CN[C@@H](Cc1c[nH]cn1)C(=O)O; Palmitoyl = CCCCCCCCCCCCCCCC(=O)*; Hyp = O=C(O)[C@@H]1C[C@@H](O)CN1; 2CE‑PEG‑TMEA = not defined here; 5CTMPA = not defined here; Nle = CCCC[C@H](N)C(=O)O; ACBA = not defined here; ACPA = not defined here; ACPC = not defined here; Dap = NC[C@H](N)C(=O)O; AEEA = NCCOCCOCC(=O)O; βAla = NCCC(=O)O; Sar = CNCC(=O)O

What follows are binders tested against human GRP receptor (human, UniProt P30550 1-384) (assay: cell-based or functional assay).
human GRP receptor, sequence (P30550 whole entry): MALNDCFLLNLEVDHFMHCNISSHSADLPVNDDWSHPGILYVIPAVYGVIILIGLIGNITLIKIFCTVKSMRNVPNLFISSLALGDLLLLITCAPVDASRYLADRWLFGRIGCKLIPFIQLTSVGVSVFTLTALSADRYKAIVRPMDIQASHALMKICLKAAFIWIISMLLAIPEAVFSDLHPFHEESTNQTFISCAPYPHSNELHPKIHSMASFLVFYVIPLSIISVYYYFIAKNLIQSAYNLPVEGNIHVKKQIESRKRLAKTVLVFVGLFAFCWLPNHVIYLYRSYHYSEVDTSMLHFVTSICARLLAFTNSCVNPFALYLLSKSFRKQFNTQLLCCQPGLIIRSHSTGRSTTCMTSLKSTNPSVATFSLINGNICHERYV

| Binder | hIP1 GRPR EC50 |
| --- | --- |
| {C20 diacid}-[γGlu][γGlu][AEEA][AEEA]RRH[Trp(7-Me)]AV[βAla]HL[Nle]-NH2 (SMILES CCCC[C@H](NC(=O)[C@H](CC(C)C)NC(=O)[C@H](Cc1c[nH]cn1)NC(=O)CCNC(=O)[C@@H](NC(=O)[C@H](C)NC(=O)[C@H](Cc1c[nH]c2c(C)cccc12)NC(=O)[C@H](Cc1c[nH]cn1)NC(=O)[C@H](CCCNC(=N)N)NC(=O)[C@H](CCCNC(=N)N)NC(=O)COCCOCCNC(=O)COCCOCCNC(=O)CC[C@H](NC(=O)CC[C@H](NC(=O)CCCCCCCCCCCCCCCCCCC(=O)O)C(=O)O)C(=O)O)C(C)C)C(N)=O) [Peptide 253] | 3.7 nM |
| {C20 diacid}-[γGlu][γGlu][AEEA][AEEA]RGRH[Trp(7-Me)]AV[βAla]HL[Nle]-NH2 (SMILES CCCC[C@H](NC(=O)[C@H](CC(C)C)NC(=O)[C@H](Cc1c[nH]cn1)NC(=O)CCNC(=O)[C@@H](NC(=O)[C@H](C)NC(=O)[C@H](Cc1c[nH]c2c(C)cccc12)NC(=O)[C@H](Cc1c[nH]cn1)NC(=O)[C@H](CCCNC(=N)N)NC(=O)CNC(=O)[C@H](CCCNC(=N)N)NC(=O)COCCOCCNC(=O)COCCOCCNC(=O)CC[C@H](NC(=O)CC[C@H](NC(=O)CCCCCCCCCCCCCCCCCCC(=O)O)C(=O)O)C(=O)O)C(C)C)C(N)=O) [Peptide 254] | 3.7 nM |
| {C20 diacid}-[γGlu]E[AEEA][AEEA]SGEH[Trp(7-Me)]AV[βAla]HL[Nle]-NH2 (SMILES CCCC[C@H](NC(=O)[C@H](CC(C)C)NC(=O)[C@H](Cc1c[nH]cn1)NC(=O)CCNC(=O)[C@@H](NC(=O)[C@H](C)NC(=O)[C@H](Cc1c[nH]c2c(C)cccc12)NC(=O)[C@H](Cc1c[nH]cn1)NC(=O)[C@H](CCC(=O)O)NC(=O)CNC(=O)[C@H](CO)NC(=O)COCCOCCNC(=O)COCCOCCNC(=O)[C@H](CCC(=O)O)NC(=O)CC[C@H](NC(=O)CCCCCCCCCCCCCCCCCCC(=O)O)C(=O)O)C(C)C)C(N)=O) [Peptide 255] | 6.9 nM |
| Palmitoyl-[d(γGlu)][AEEA][AEEA]GNHWAV[dA]HL[Nle][Sar]-NH2 (SMILES CCCCCCCCCCCCCCCC(=O)N[C@H](CCC(=O)NCCOCCOCC(=O)NCCOCCOCC(=O)NCC(=O)N[C@@H](CC(N)=O)C(=O)N[C@@H](Cc1c[nH]cn1)C(=O)N[C@@H](Cc1c[nH]c2ccccc12)C(=O)N[C@@H](C)C(=O)N[C@H](C(=O)N[C@H](C)C(=O)N[C@@H](Cc1c[nH]cn1)C(=O)N[C@@H](CC(C)C)C(=O)N[C@@H](CCCC)C(=O)N(C)CC(N)=O)C(C)C)C(=O)O) [Peptide 15] | 1.4 nM |
| {C20 diacid}-[γGlu]E[AEEA][AEEA]SGRH[Trp(7-Me)]AV[βAla]HL[Nle]-NH2 (SMILES CCCC[C@H](NC(=O)[C@H](CC(C)C)NC(=O)[C@H](Cc1c[nH]cn1)NC(=O)CCNC(=O)[C@@H](NC(=O)[C@H](C)NC(=O)[C@H](Cc1c[nH]c2c(C)cccc12)NC(=O)[C@H](Cc1c[nH]cn1)NC(=O)[C@H](CCCNC(=N)N)NC(=O)CNC(=O)[C@H](CO)NC(=O)COCCOCCNC(=O)COCCOCCNC(=O)[C@H](CCC(=O)O)NC(=O)CC[C@H](NC(=O)CCCCCCCCCCCCCCCCCCC(=O)O)C(=O)O)C(C)C)C(N)=O) [Peptide 256] | 3.7 nM |
| {C20 diacid}-[γGlu][γGlu][AEEA][AEEA]ESQH[Trp(7-Me)]AV[βAla]HL[Nle]-NH2 (SMILES CCCC[C@H](NC(=O)[C@H](CC(C)C)NC(=O)[C@H](Cc1c[nH]cn1)NC(=O)CCNC(=O)[C@@H](NC(=O)[C@H](C)NC(=O)[C@H](Cc1c[nH]c2c(C)cccc12)NC(=O)[C@H](Cc1c[nH]cn1)NC(=O)[C@H](CCC(N)=O)NC(=O)[C@H](CO)NC(=O)[C@H](CCC(=O)O)NC(=O)COCCOCCNC(=O)COCCOCCNC(=O)CC[C@H](NC(=O)CC[C@H](NC(=O)CCCCCCCCCCCCCCCCCCC(=O)O)C(=O)O)C(=O)O)C(C)C)C(N)=O) [Peptide 257] | 12.5 nM |
| {C20 diacid}-[γGlu][γGlu][AEEA][AEEA]GNH[Trp(7-Me)]AV[BABA]HL[Nle]-NH2 [Peptide 258] | 6 nM |
| {C20 diacid}-[γGlu][γGlu][AEEA][AEEA]GQH[Trp(7-Me)]AV[BABA]HL[Nle]-NH2 [Peptide 259] | 8.2 nM |
| {C20 diacid}-[γGlu][AEEA][AEEA]G[Dap](5CTMPA)HWAV[βAla]HL[Nle]-NH2 (reading uncertain) [Peptide 261] | 4 nM |
| {C20 diacid}-[γGlu][AEEA][AEEA]G[Dap](2CE‑PEG‑TMEA)HWAV[βAla]HL[Nle]-NH2 (reading uncertain) [Peptide 262] | 4 nM |
| {C20 diacid}-[γGlu][AEEA][AEEA]GQH[Trp(7-Me)]AV[BAIBA]HL[Nle]-NH2 [Peptide 263] | 2.7 nM |
| {C20 diacid}-[γGlu][AEEA][AEEA]GNH[Trp(7-Me)]AV[3A3MBA]HL[Nle]-NH2 [Peptide 264] | 8.6 nM |
| {C20 diacid}-[γGlu][AEEA][AEEA]GQHWAV[βAla]HL[Hse(Me)]-NH2 [Peptide 265] | 7.7 nM |
| Palmitoyl-[d(γGlu)][AEEA][AEEA]GEHWAV[dA]HL[Nle]-NH2 (SMILES CCCCCCCCCCCCCCCC(=O)N[C@H](CCC(=O)NCCOCCOCC(=O)NCCOCCOCC(=O)NCC(=O)N[C@@H](CCC(=O)O)C(=O)N[C@@H](Cc1c[nH]cn1)C(=O)N[C@@H](Cc1c[nH]c2ccccc12)C(=O)N[C@@H](C)C(=O)N[C@H](C(=O)N[C@H](C)C(=O)N[C@@H](Cc1c[nH]cn1)C(=O)N[C@@H](CC(C)C)C(=O)N[C@@H](CCCC)C(N)=O)C(C)C)C(=O)O) [Peptide 16] | 5.8 nM |
| {C20 diacid}-[γGlu][AEEA][AEEA]GEGEHWAV[βAla]HL[Nle]-NH2 (SMILES CCCC[C@H](NC(=O)[C@H](CC(C)C)NC(=O)[C@H](Cc1c[nH]cn1)NC(=O)CCNC(=O)[C@@H](NC(=O)[C@H](C)NC(=O)[C@H](Cc1c[nH]c2ccccc12)NC(=O)[C@H](Cc1c[nH]cn1)NC(=O)[C@H](CCC(=O)O)NC(=O)CNC(=O)[C@H](CCC(=O)O)NC(=O)CNC(=O)COCCOCCNC(=O)COCCOCCNC(=O)CC[C@H](NC(=O)CCCCCCCCCCCCCCCCCCC(=O)O)C(=O)O)C(C)C)C(N)=O) [Peptide 266] | 11 nM |
| {C20 diacid}-[γGlu][AEEA][AEEA]GQHWAV[βAla][NMeH]L[Nle]-NH2 (SMILES CCCC[C@H](NC(=O)[C@H](CC(C)C)NC(=O)[C@H](Cc1c[nH]cn1)N(C)C(=O)CCNC(=O)[C@@H](NC(=O)[C@H](C)NC(=O)[C@H](Cc1c[nH]c2ccccc12)NC(=O)[C@H](Cc1c[nH]cn1)NC(=O)[C@H](CCC(N)=O)NC(=O)CNC(=O)COCCOCCNC(=O)COCCOCCNC(=O)CC[C@H](NC(=O)CCCCCCCCCCCCCCCCCCC(=O)O)C(=O)O)C(C)C)C(N)=O) [Peptide 267] | 7.4 nM |
| {C20 diacid}-[γGlu][AEEA][AEEA]PQHWAV[βAla]HL[Nle]-NH2 (SMILES CCCC[C@H](NC(=O)[C@H](CC(C)C)NC(=O)[C@H](Cc1c[nH]cn1)NC(=O)CCNC(=O)[C@@H](NC(=O)[C@H](C)NC(=O)[C@H](Cc1c[nH]c2ccccc12)NC(=O)[C@H](Cc1c[nH]cn1)NC(=O)[C@H](CCC(N)=O)NC(=O)[C@@H]1CCCN1C(=O)COCCOCCNC(=O)COCCOCCNC(=O)CC[C@H](NC(=O)CCCCCCCCCCCCCCCCCCC(=O)O)C(=O)O)C(C)C)C(N)=O) [Peptide 268] | 4.3 nM |
| {C20 diacid}-[γGlu][AEEA][AEEA][Hyp]QHWAV[βAla]HL[Nle]-NH2 (SMILES CCCC[C@H](NC(=O)[C@H](CC(C)C)NC(=O)[C@H](Cc1c[nH]cn1)NC(=O)CCNC(=O)[C@@H](NC(=O)[C@H](C)NC(=O)[C@H](Cc1c[nH]c2ccccc12)NC(=O)[C@H](Cc1c[nH]cn1)NC(=O)[C@H](CCC(N)=O)NC(=O)[C@@H]1C[C@@H](O)CN1C(=O)COCCOCCNC(=O)COCCOCCNC(=O)CC[C@H](NC(=O)CCCCCCCCCCCCCCCCCCC(=O)O)C(=O)O)C(C)C)C(N)=O) [Peptide 269] | 2.4 nM |
| {C20 diacid}-[γGlu][γGlu][AEEA][AEEA]GQH[Trp(7-Me)]AV[BABA][NMeH]L[Nle]-NH2 [Peptide 270] | 3.8 nM |
| {C20 diacid}-[γGlu][γGlu][AEEA][AEEA]GQHWAV[ACPC]HL[Nle]-NH2 (reading uncertain) [Peptide 271] | 10.2 nM |
| {C20 diacid}-[γGlu][γGlu][AEEA][AEEA]GQHWAV[ACPA]HL[Nle]-NH2 (reading uncertain) [Peptide 272] | 6 nM |
| {C20 diacid}-[γGlu]E[AEEA][AEEA]GQHWAV[ACBA]HL[Nle]-NH2 (reading uncertain) [Peptide 273] | 12.3 nM |
